Assay results: US20190330271A1

Experiments:
Aβ42 = Aβ42 (UniProt P05067); assay: cell-based or functional assay
amylin = amylin (UniProt P10997); assay: cell-based or functional assay
lysozyme = assay: cell-based or functional assay
insulin = assay: cell-based or functional assay
amylin monomers, P10997 = target: T1, amylin monomers, P10997; assay: ELISA, amyloid coated at 1 µg/well, His-tagged ZR detected with HRP-linked antibody
T1 chain: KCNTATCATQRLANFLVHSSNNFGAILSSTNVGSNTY

Aβ42 monomers, P05067 = assay: as above
Sequence of Aβ42 monomers, P05067 (P05067 672-713 limits assumed): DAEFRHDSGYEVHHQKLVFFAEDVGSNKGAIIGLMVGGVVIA

amylin fibers, P10997 = target: T2, amylin fibers, P10997; assay: as above
T2 chain: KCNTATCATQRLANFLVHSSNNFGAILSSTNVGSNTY

Aβ42 oligomers, P05067 = assay: as above
Sequence of Aβ42 oligomers, P05067 (P05067 672-713 limits assumed): as the sequence (P05067 672-713 limits assumed) above

Aβ42 fibers, P05067 = assay: as above
Sequence of Aβ42 fibers, P05067 (P05067 672-713 limits assumed): as the sequence (P05067 672-713 limits assumed) above

amylin oligomers, P10997 = target: T3, amylin oligomers, P10997; assay: as above
T3 chain: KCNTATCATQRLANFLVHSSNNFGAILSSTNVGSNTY

Sequence of Aβ42 (P05067 672-713 limits assumed): as the sequence (P05067 672-713 limits assumed) above

**Q.** SFFNNKR [ZR polypeptide (SEQ ID NO. 2)] was tested. Which ThT fluorescence value, Aβ42 with ZR at a molar ratio of 1:1 (Aβ42 alone: 26500) (Aβ42) did it give?
**A.** The ThT fluorescence value, Aβ42 with ZR at a molar ratio of 1:1 (Aβ42 alone: 26500) was 22000.

**Q.** What about the ThT fluorescence value, Aβ42 with ZR at a molar ratio of 1:10 (Aβ42 alone: 26500) (Aβ42) of the same binder?
**A.** Its ThT fluorescence value, Aβ42 with ZR at a molar ratio of 1:10 (Aβ42 alone: 26500) is 17000.

**Q.** What about the cell activity of SH-SY5Y cells (MTT), Aβ:ZR=1:0.5 group (Aβ42 group: 71%) (Aβ42) of the same binder?
**A.** The cell activity of SH-SY5Y cells (MTT), Aβ:ZR=1:0.5 group (Aβ42 group: 71%) was 80%.

**Q.** What about the cell activity of SH-SY5Y cells (MTT), Aβ:ZR=1:1 group (Aβ42 group: 71%) (Aβ42) of the same binder?
**A.** The cell activity of SH-SY5Y cells (MTT), Aβ:ZR=1:1 group (Aβ42 group: 71%) was 82%.

**Q.** And the cytotoxicity inhibited, molar ratio 1:1 (Aβ42)?
**A.** Its cytotoxicity inhibited, molar ratio 1:1 is 37.8%.

**Q.** And the ThT fluorescence value, amylin with ZR at a molar ratio of 1:1 (amylin alone: 38000) (amylin)?
**A.** Its ThT fluorescence value, amylin with ZR at a molar ratio of 1:1 (amylin alone: 38000) is 41000.

**Q.** What about the ThT fluorescence value, amylin with ZR at a molar ratio of 1:10 (amylin alone: 38000) (amylin) of the same binder?
**A.** Its ThT fluorescence value, amylin with ZR at a molar ratio of 1:10 (amylin alone: 38000) is 43000.

**Q.** What about the cell activity of SH-SY5Y cells (MTT), Amylin:ZR=1:1 group (Amylin group: 61%) (amylin) of the same binder?
**A.** The cell activity of SH-SY5Y cells (MTT), Amylin:ZR=1:1 group (Amylin group: 61%) was 70%.

**Q.** And the cell activity of SH-SY5Y cells (MTT), Amylin:ZR=1:10 group (Amylin group: 61%) (amylin)?
**A.** The cell activity of SH-SY5Y cells (MTT), Amylin:ZR=1:10 group (Amylin group: 61%) was 75%.

**Q.** What about the cytotoxicity inhibited, molar ratio 1:10 (amylin) of the same binder?
**A.** The cytotoxicity inhibited, molar ratio 1:10 was 45.4%.

**Q.** What about the ThT fluorescence value, lysozyme with ZR at a molar ratio of 1:1 (lysozyme alone: 310000) (lysozyme) of the same binder?
**A.** The ThT fluorescence value, lysozyme with ZR at a molar ratio of 1:1 (lysozyme alone: 310000) was 220000.

**Q.** And the ThT fluorescence value, lysozyme with ZR at a molar ratio of 1:10 (lysozyme alone: 310000) (lysozyme)?
**A.** The ThT fluorescence value, lysozyme with ZR at a molar ratio of 1:10 (lysozyme alone: 310000) was 170000.

**Q.** What about the cell activity of SH-SY5Y cells (MTT), lysozyme:ZR=1:1 group (lysozyme group: 55%) (lysozyme) of the same binder?
**A.** Its cell activity of SH-SY5Y cells (MTT), lysozyme:ZR=1:1 group (lysozyme group: 55%) is 85%.

**Q.** And the cell activity of SH-SY5Y cells (MTT), lysozyme:ZR=1:10 group (lysozyme group: 55%) (lysozyme)?
**A.** Its cell activity of SH-SY5Y cells (MTT), lysozyme:ZR=1:10 group (lysozyme group: 55%) is 93%.

**Q.** And the cytotoxicity inhibited, molar ratio 1:10 (lysozyme)?
**A.** The cytotoxicity inhibited, molar ratio 1:10 was 118%.

**Q.** What about the ThT fluorescence value, insulin with ZR at a molar ratio of 1:1 (insulin alone: 305000) (insulin) of the same binder?
**A.** The ThT fluorescence value, insulin with ZR at a molar ratio of 1:1 (insulin alone: 305000) was 305000.

**Q.** What about the ThT fluorescence value, insulin with ZR at a molar ratio of 1:10 (insulin alone: 305000) (insulin) of the same binder?
**A.** Its ThT fluorescence value, insulin with ZR at a molar ratio of 1:10 (insulin alone: 305000) is 310000.

**Q.** What about the cell activity of SH-SY5Y cells (MTT), insulin:ZR=1:1 group (insulin group: 77%) (insulin) of the same binder?
**A.** The cell activity of SH-SY5Y cells (MTT), insulin:ZR=1:1 group (insulin group: 77%) was 92%.

**Q.** What about the cell activity of SH-SY5Y cells (MTT), insulin:ZR=1:5 group (insulin group: 77%) (insulin) of the same binder?
**A.** The cell activity of SH-SY5Y cells (MTT), insulin:ZR=1:5 group (insulin group: 77%) was 102%.

**Q.** And the cytotoxicity inhibited, molar ratio 1:5 (insulin)?
**A.** The cytotoxicity inhibited, molar ratio 1:5 was 89.8%.

**Q.** SFFNNKR (modifications not checked) [histidine-tagged ZR polypeptide (SEQ ID NO. 2)] was tested. Which OD450 (amylin monomers, P10997) did it give?
**A.** Its OD450 is 0.41.

**Q.** And the OD450 (Aβ42 monomers, P05067)?
**A.** Its OD450 is 0.34.

**Q.** And the OD450 (amylin fibers, P10997)?
**A.** The OD450 was 0.18.

**Q.** And the OD450 (Aβ42 oligomers, P05067)?
**A.** Its OD450 is 0.38.

**Q.** And the OD450 (Aβ42 fibers, P05067)?
**A.** Its OD450 is 0.35.

**Q.** And the OD450 (amylin oligomers, P10997)?
**A.** The OD450 was 0.5.
